Consider 1 molecule from patent CN117736312A (SHANGHAI BOVAX BIOLOGICAL SCIENCE & TECH CO LTD, dated 2024).

What all share (assay): sandwich ELISA (rabbit anti-L1 capture)
For one assay, the target named is T1, HPV51L1 (human papillomavirus type 51, UniProt P26536 1-504).
T1 sequence: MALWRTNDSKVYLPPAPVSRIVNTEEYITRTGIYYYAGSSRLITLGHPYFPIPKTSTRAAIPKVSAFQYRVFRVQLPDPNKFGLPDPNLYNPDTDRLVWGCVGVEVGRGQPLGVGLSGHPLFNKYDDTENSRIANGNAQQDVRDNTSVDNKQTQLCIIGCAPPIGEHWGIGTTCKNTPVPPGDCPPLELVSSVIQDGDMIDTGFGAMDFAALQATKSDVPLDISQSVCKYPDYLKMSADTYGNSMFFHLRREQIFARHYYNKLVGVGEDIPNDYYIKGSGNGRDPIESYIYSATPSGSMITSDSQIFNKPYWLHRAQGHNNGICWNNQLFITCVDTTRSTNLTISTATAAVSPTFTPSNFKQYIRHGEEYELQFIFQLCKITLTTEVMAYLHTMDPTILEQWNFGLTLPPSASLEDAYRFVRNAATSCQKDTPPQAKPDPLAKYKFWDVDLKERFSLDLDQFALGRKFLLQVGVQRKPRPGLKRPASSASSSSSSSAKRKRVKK

Another assay has as its target T2, HPV35L1 (human papillomavirus type 35, UniProt P27232 1-502).
T2 sequence: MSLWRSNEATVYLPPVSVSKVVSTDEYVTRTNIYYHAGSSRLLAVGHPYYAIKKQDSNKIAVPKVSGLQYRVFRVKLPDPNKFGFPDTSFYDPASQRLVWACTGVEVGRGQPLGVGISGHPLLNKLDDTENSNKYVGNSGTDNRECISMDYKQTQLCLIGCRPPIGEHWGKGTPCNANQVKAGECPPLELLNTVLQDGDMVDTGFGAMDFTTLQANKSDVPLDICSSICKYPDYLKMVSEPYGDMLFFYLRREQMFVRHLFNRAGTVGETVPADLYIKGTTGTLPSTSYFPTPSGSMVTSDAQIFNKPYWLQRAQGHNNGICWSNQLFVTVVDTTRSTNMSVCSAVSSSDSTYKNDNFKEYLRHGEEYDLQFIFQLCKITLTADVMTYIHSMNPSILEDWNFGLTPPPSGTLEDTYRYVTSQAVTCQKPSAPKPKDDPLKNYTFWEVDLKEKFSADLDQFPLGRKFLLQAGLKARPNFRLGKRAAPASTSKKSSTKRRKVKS

The target in a further assay is T3, HPV58L1 (human papillomavirus type 58, UniProt P26535 27-524).
T3 sequence: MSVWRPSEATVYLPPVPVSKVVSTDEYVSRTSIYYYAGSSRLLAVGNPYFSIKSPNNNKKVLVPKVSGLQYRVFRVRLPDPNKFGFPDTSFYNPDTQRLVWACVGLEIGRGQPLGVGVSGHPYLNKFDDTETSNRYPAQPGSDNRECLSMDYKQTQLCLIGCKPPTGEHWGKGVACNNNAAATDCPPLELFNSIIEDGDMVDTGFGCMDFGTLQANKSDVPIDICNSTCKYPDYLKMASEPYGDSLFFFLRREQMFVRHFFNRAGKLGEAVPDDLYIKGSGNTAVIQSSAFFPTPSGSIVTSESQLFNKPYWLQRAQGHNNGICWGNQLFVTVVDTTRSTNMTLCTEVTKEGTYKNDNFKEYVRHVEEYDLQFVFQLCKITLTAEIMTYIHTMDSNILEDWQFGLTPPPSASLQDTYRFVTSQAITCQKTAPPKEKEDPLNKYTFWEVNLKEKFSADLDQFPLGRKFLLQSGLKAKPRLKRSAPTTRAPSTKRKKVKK

The target in another assay is T4, HPV39L1 (human papillomavirus type 39, UniProt P24838 1-505).
T4 sequence: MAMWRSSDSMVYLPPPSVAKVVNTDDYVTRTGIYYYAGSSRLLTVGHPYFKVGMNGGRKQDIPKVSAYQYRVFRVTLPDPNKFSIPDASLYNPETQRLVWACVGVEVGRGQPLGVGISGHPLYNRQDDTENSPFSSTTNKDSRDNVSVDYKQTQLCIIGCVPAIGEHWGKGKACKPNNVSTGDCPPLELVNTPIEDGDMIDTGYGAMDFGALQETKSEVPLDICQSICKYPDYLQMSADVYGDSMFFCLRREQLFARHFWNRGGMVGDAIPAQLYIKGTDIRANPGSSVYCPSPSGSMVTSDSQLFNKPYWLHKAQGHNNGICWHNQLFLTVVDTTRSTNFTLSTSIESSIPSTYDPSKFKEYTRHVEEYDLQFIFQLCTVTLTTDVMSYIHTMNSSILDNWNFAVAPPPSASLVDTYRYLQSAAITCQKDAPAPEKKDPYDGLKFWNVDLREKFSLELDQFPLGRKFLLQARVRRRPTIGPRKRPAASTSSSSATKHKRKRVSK

Another assay deals with T5, HPV18L1 (human papillomavirus type 18, UniProt P06794 62-568).
T5 sequence: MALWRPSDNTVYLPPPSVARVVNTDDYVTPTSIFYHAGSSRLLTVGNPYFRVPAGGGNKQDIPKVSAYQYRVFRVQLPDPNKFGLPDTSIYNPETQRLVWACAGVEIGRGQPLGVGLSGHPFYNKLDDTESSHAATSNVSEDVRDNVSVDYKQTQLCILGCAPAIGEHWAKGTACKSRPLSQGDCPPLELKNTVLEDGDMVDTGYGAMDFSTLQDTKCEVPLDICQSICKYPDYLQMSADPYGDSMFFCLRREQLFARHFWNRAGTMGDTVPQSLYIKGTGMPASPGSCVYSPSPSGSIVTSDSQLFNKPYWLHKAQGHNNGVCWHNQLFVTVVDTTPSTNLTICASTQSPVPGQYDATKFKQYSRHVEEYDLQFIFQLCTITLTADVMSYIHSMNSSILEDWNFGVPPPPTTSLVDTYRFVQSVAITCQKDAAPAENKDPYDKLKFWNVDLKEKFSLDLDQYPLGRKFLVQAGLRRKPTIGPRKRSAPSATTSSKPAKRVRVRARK

B1: HPV 59编号为30单克隆抗体 (antibody, V domains shown)
VH: QIQLVQSGPELKKPGETVKISCKASGYTFTDYSMHWVKQAPGKGLKWMGWINTETGEPTYADDFKGRFAFSLETSASTAYLQINNLKIEDTATYFCTRDGYVWYFDVWGAGTTVTVSS
VL: QIVLSQSPAILSASPGEKVTMTCRASSSVNYMHWYQQKPGSSPKPWIYATSNLASGVPARFSGSGSGTSYSLTISRVEAEDAATYYCQQWSSNPIFTFGSGTKLEIK
notes: Mouse hybridoma antibody tested as cell supernatant; also called 59H30
For B1, the binding result with HPV51L1, in the assay with HPV35L1, with HPV58L1, with HPV39L1 and with HPV18L1 was “no binding (tested: 原液40μg/ml; 细胞上清1:100)” throughout.
